Article PMC6009097, “Design and biological characterization of novel cell-penetrating peptides preferentially targeting cell nuclei and subnuclear regions” (Beilstein Journal of Organic Chemistry, 2018)
Marks after values point to notes of the source that are not given here. Where no end group is shown, it is not given here.

Columns and labels:
HeLa cells [1] = test: Cellular uptake, confocal fluorescence microscopy; type: cell-based; conditions: 10 µM CF-labeled peptide, 30 min, 37 °C; for cellular uptake (microscopy): trypan blue quench
Protocol: (§1) Next, we analyzed the intracellular fate of the new peptide variants using confocal fluorescence microscopy. Thus, MCF-7 and HeLa cells were incubated with 10 µM peptide solutions at 37 °C and inspected after 30 min (Figure 3).
(§2) Figure 3 Cellular uptake in HeLa and MCF-7 cells. Cells were incubated for 30 min with 10 µM of CF-labeled peptide solutions. Green: CF-labeled peptide; blue: Hoechst 33342 nuclear stain; scale bar is 10 µm.
(§3) For microscopic analyses, a confocal laser scanning system (Nikon D-Eclipse C1) with an inverted microscope (Nikon Eclipse Ti) was used. Pictures were taken with a 60× oil immersion objective (N.A. 1.4, Plan APO VC; Nikon) using the software EZ-C1 3.91 from Nikon.
(§4) Cells were seeded in 350 μL medium in an 8-well ibidi plate (HeLa 45,000, MCF-7 70,000 cells per well) and were grown to 70–80% confluency. Then, the medium was removed and the cells were treated with the peptides and substances in various concentrations for the requested time. Cells were incubated at 4 °C or 37 °C and 10 min prior to the end of incubation 0.6 μL of Hoechst stain (bisbenzimide H33342, 1 mg/mL in H2O, sterile filtered) was added to each well to stain the cell nuclei. After removing the solutions, cells were quenched with 200 μL of 150 μM trypan blue solution (in acetate buffer) for 30 s. The stain was removed and the cells were washed twice with medium. After adding 300 μL of fresh medium, pictures were taken using a fluorescence confocal microscope. Images were edited in Image J 1.43m.

MCF-7 cells [2] = test: Cellular uptake, confocal fluorescence microscopy; type: cell-based; conditions: MCF-7, 10 µM CF-labeled peptide, 30 min; for cellular uptake (microscopy) / intracellular distribution: 37 °C, confocal fluorescence; for cellular uptake (microscopy): trypan blue quench
Protocol: as §1, §2, §3, §4

[3] = tested on: several different cell lines; conditions: cited from earlier work
Protocol: Within their studies, the authors used higher concentrations, longer incubation times and other cell lines, what could probably explain the different results obtained in our study. In fact, it is very likely that working with increased concentrations of the NrTP sequence could probably improve the cell-penetrating capability of this peptide. Also for the N50 sequence alone, the internalization ability in several different cell lines was already determined [[2 ...

[4] = Circular dichroism spectroscopy (secondary structure); type: physicochemical; conditions: 10 mM phosphate buffer pH 7.0 with TFE (50%), peptide 20 µM
Protocol: First, we performed a structural analysis by diluting all peptides to a concentration of 20 μM in phosphate buffer (pH 7.0), with or without the presence of the secondary structure inducing solvent trifluoroethanol (TFE).
Figure 1 Circular dichroism spectra of the novel peptides solved in 10 mM phosphate buffer (pH 7) (A), or phosphate buffer with the addition of TFE (50%) (B). Peptide concentration was 20 µM. (C) Helical wheel projections of the peptides N50-sC18* and NrTP-sC18*, respectively.
All peptides were analyzed in 10 mM potassium phosphate buffer (pH 7.0) with or without the addition of TFE (1:1 dilution) using a peptide concentration of 20 µM. Peptides were measured in a 0.1 cm quartz cuvette with a sensitivity of 100 mdeg in the range from 260 to 180 nm in 0.5 nm intervals. The scanning mode was continuous and a scanning speed of 50 nm/min was chosen. The results of pure buffer were subtracted from the spectra of the peptides. The ratio between the molar ellipticity at 222 nm and 207 nm was used to confirm an α-helical structure of peptides.

HeLa cells [5] = test: Resazurin-based cell viability assay; conditions: 24 h; for concentration up to which no significant toxicity was observed: 37 °C, serum-free medium, resazurin read-out, n = 3 in triplicate
Protocol: (§5) In the next step, the cytotoxicity profiles of the novel peptide chimera were investigated. Therefore, we chose two different cancer cell lines, namely breast cancer MCF-7 and cervix carcinoma HeLa cells, which were exposed for 24 h to various concentrations of the peptides sC18*, N50, N50-sC18*, NrTP and NrTP-sC18* (Figure 2).
(§6) Figure 2 Cytotoxicity profiles of the peptides in MCF-7 and HeLa cells. Cells were incubated for 24 h with different concentrations of peptide solutions. Untreated cells served as negative control, cells treated with 70% ethanol as positive control. Values from the positive control were subtracted from all data, and the untreated cells were set to 100%; assays were performed with n = 3 in triplicate.
(§7) A total volume of 200 μL of cells (HeLa 40’000, MCF-7 50’000 cells per well) were seeded in 96-well plates and grown to 70–80% confluency. Afterwards, they were incubated with peptide or doxorubicin solutions (diluted in serum-free medium) in a total volume of 100 μL. In the wells that served as positive and negative controls, the medium was replaced by fresh medium without FBS. The plates were incubated for 24 h or 48 h at 37 °C. Afterwards, the positive control was treated with 100 μL of 70% EtOH for 10 min, and then all cells were washed with PBS. Cells were covered with 100 μL of a 10% resazurin solution in medium without FBS and incubated for 1–2 h at 37 °C. Afterwards, fluorescence was quantified by using a Tecan infinite M200 plate reader (excitation: 550 nm, emission: 595 nm).
To achieve comparably results, the positive control was subtracted from all data and the negative control was set to 100%, so that the results of the peptide-treated cells represent relative cell viability values in %. Experiments were done in triplicate.
Peptide solutions of 1, 5, 10,
25, 40, 55, 70, 85 and 100 µM were incubated with HeLa cells (24 h, 37 °C). Afterwards a resazurin-based cell
viability assay was performed according to the experimental part.
(1 picture or pasted object on this page, not shown here)

HeLa cells [6] = test: Cellular uptake, confocal fluorescence microscopy; type: cell-based; conditions: 1 μM CF-labeled peptide, 37 °C; for cellular uptake (microscopy) at 1 μM: 30 and 120 min; for intracellular distribution at 1 μM: 30 or 120 min
MCF-7 cells [7] = test: Cytotoxicity of doxorubicin co-incubated with peptides (resazurin viability assay); type: cell-based; conditions: 48 h
Protocol: (§8) Fluorescence microscopic images after 30 min incubation in HeLa (A) and MCF-7 (B) cells with 10 μM CF-labeled peptides N50-sC18* or NrTP-sC18* co-incubated with 10 μg/mL doxorubicin at 37 °C, respectively. Cells treated with DOX alone served as negative control; Green: CF-labeled peptide; blue: Hoechst 33342 nuclear stain; red: doxorubicin; scale bar is 10 µm. (C) Cells were incubated for 48 h with DOX (1 µg/mL), or solutions out of peptides (10 µM) and DOX (1 µg/mL), or peptide solutions (10 µM) alone. Untreated cells served as negative control, cells treated for 10 min with 70% ethanol as positive control. Experiments were conducted in triplicate with n = 2.
Herein, the drug alone (1 μg/mL) or in presence of 10 μM solutions of the peptides sC18*, N50-sC18* and NrTP-sC18*, respectively, were incubated for 48 h with MCF-7 cells.
as §7
Experiments were done in triplicate.

HeLa cells [8] = test: Doxorubicin uptake on co-administration, fluorescence microscopy; type: cell-based; conditions: DOX 10 µg/mL, 30 min, 37 °C
Protocol: (§9) Doxorubicin is known to be fluorescent and this property was used to test if the peptides were able to enhance the intracellular uptake of the drug. Therefore, solutions out of DOX and the sequences N50-sC18* and NrTP-sC18* were incubated with HeLa and MCF-7 cells, respectively, and observed for red fluorescence afterwards (Figure 7A and 7B).
as §8, with “Figure 7 Uptake and delivery of DOX into HeLa and MCF-7 cells. Fluorescence” for “Fluorescence”
(§10) Cells were seeded in 350 μL medium in an 8-well ibidi plate (HeLa 45,000, MCF-7 70,000 cells per well) and were grown to 70–80% confluency. […] After adding 300 μL of fresh medium, pictures were taken using a fluorescence confocal microscope. […]

MCF-7 cells [9] = test: as above; type: cell-based; conditions: MCF-7, DOX 10 µg/mL, 30 min, 37 °C
Protocol: as §9
as §8, with “Figure 7 Uptake and delivery of DOX into HeLa and MCF-7 cells. Fluorescence” for “Fluorescence”
as §10

MCF-7 cells [10] = test: Resazurin-based cell viability assay; conditions: 24 h, 37 °C, serum-free medium, resazurin read-out, n = 3 in triplicate
Protocol: as §5, §6
as §7, with “Afterwards, the positive control was treated with 100 μL of 70% EtOH for 10 min, and then all cells were washed with PBS. Cells were covered with 100 μL of a 10% resazurin solution in medium without FBS and incubated for 1–2 h at 37 °C.” left out, “nm). […]” for “nm).”

HeLa cells [11] = test: Cellular uptake quantified by flow cytometry; type: cell-based; conditions: 10 µM peptide, 30 min, 37 °C, serum-free medium, 10,000 cells, triplicate
Protocol: (§11) Figure 4 Cellular uptake in MCF-7 and HeLa cells was quantified by flow cytometry. Cells were incubated with 10 µM peptide solutions for 30 min at 37 °C.
(§12) Cells were seeded in 24-well plates (HeLa 170,000, MCF-7 200,000 cells per well) and grown to 70–80% confluency. Then, cells were treated with 400 μL of peptide solutions dissolved in serum-free medium for the appropriate time at 4 °C or 37 °C. Afterwards, the cells were washed twice with PBS and detached with Trypsin-EDTA 1× in PBS without phenol red for 3–5 min followed by adding 800 μL of indicator-free medium. Cells were resuspended and 200 μL of the suspension were transferred to a 96-well plate for measuring the fluorescence in the Guava® easyCyte flow cytometer (Merck). In each sample, 10,000 cells were measured and each experiment was done in triplicate. Cells treated with medium only served as negative control and their fluorescent signal was subtracted from all other samples in each set of experiment.

MCF-7 cells [12] = test: Cellular uptake quantified by flow cytometry; type: cell-based; conditions: MCF-7, 10 µM peptide, 30 min, 37 °C, serum-free medium, 10,000 cells, triplicate
Protocol: as §11, §12

[13] = MCF-7, peptide 10 μM + DOX 1 μg/mL

Compound | cellular uptake (microscopy) (HeLa cells [1]) | cellular uptake (microscopy) (MCF-7 cells [2]) | secondary structure (CD) [4] | concentration up to which no significant toxicity was observed (HeLa cells [5]; HeLa cells) [µM] | cellular uptake (microscopy) at 1 μM (HeLa cells [6]) | effect of the peptide on the toxic effect / efficacy of DOX (MCF-7 cells [7]; [13]) | concentration up to which no toxic effects were observed (MCF-7 cells [10]) [µM] | intracellular distribution (HeLa cells [1]) | intracellular distribution at 4 °C (MCF-7 cells [2]) | intracellular distribution (MCF-7 cells [2]) | intracellular distribution at 1 μM (HeLa cells [6]) | cellular uptake (flow cytometry) (HeLa cells [11]) | cellular uptake (flow cytometry) (MCF-7 cells [12]) | also measured
VQRKRQKLMP [N50, reference compound] | not noticeable present | not noticeable present | random coil structure | ≤ 50 | no uptake at all |  |  |  |  |  |  |  |  | internalization ability / uptake [3]: very low
GLRKRLRKFRNK [sC18*, shortened version of the cell-penetrating peptide sC18, lacking its four C-terminal amino acids] | only small dots were detectable | only small dots were detectable | α-helical character | ≤ 50 | no uptake at all | could not enhance the efficacy of DOX |  |  |  |  |  |  |  | 
COc1cccc2c1C(=O)c1c(O)c3c(c(O)c1C2=O)C[C@@](O)(C(=O)CO)C[C@@H]3O[C@H]1C[C@H](N)[C@H](O)[C@H](C)O1 [doxorubicin] |  |  |  |  |  |  |  |  |  |  |  |  |  | amount of viable cells, doxorubicin alone (MCF-7 cells [7]; MCF-7, DOX 1 μg/mL, triplicate with n = 2): about 60%; red fluorescence of DOX in cells, DOX only (HeLa cells [8]): Minor red fluorescence; red fluorescence of DOX in cells, DOX only (MCF-7 cells [9]): Minor red fluorescence
YKQCHKKGGKKGSGGLRKRLRKFRNK-NH2 [NrTP-sC18*] | entered the cells extremely efficiently compared to sC18* alone | entered the cells extremely efficiently compared to sC18* alone |  | ≤ 50 |  |  | ≤ 100 | strong accumulation within the nucleoli | evenly distributed throughout the whole cell, including strong accumulation in the nuclei | strong accumulation within the nucleoli | accumulates in endosomes | extremely high uptake | extremely high uptake | IC50 (HeLa cells [5]): 53.7 ± 4.79 µM; effect on cell viability at 50 µM (HeLa cells [5]; HeLa cells, 50 µM): seemed to affect cell viability; effect on cell viability at higher concentrations (HeLa cells [5]; HeLa cells, concentrations above 50 µM): all cells were dead
VQRKRQKLMPGLRKRLRKFRNK [N50-sC18*] | entered the cells extremely efficiently compared to sC18* alone | entered the cells extremely efficiently compared to sC18* alone | formed α-helices | ≤ 50 |  | significantly improved | ≤ 100 | distributed within the whole cell cytosol, and accumulated particularly around the nucleus | mainly detectable within the nuclei | distributed within the whole cell cytosol, and accumulated particularly around the nucleus | diffusely distributed within the cytosol and the nuclei of HeLa cells, and after 120 min it mainly accumulated within the nuclei | extremely high uptake | extremely high uptake | number of viable cells after co-treatment with DOX (MCF-7 cells [7]; MCF-7, peptide 10 μM + DOX 1 μg/mL, triplicate with n = 2): 30%; R-value (ratio between the molar ellipticity at 222 nm and 207 nm) ([4]; CD): 0.83
